Drawing on a protein production outcome set (Wang et al. 2014), this text covers protein production for 18 sequences.

This data set in a line: label from the status in PepcDB records.
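Further: failed if final PepcDB status was selected cloned or expressed and not failed if soluble or beyond.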

For the sequence “MISILRRGLLVLLAALPLLANAASTPSAHDLVQDTTTRLLADLAANKEKYKQSPNDFYNALNSIVGPVVDADGISRSIMTVKYSRKATPEQMVRFQENFKRSLMQFYGNALLEYNNQGITVSPAKDESGTRTSVDMQVKGNNGAIYPVSYTLEKINDEWKVRNVIINGINIGKLFRDQFADAMQRNGNNLDKTIDGWAGEVAKAKEVTEDAAQKAAQLEHHHHHH”, the protein production result is on record as “not failed”. For “MISMPKEKVVIIIPTYNEEDNISNTIDLILKETYSLADYQVDILVFDSHSTDSTAHIVRELTYTSQRIHFAQEPQKTGLGSAYLQAMRIAIDELNADVVFEFDADGSHQPCYIAPMLELLKQHDVVVGSRYISGGRIPSNWAFHRKLLSVGGNWVARMLLTGKYKDLTSGLRAIRTNLLKKLLPSNFLSNNYAYKLELYWLLHKAKARIVEFPIQFIDREKGKSKLPKNSMIDTLRVLFTLRFRELRQYLTMCCVGSIGALIQFSLYNWLRSSNHSALVSSQVAISAAIISNFIFHHSITFKQKTDFRITKTTFSRFTQFIIYSTFMVYFQSLWVHIFVHSFGQGVLKENIIVASGLGIGSIINYLFYSNIIWSSKGTHSLNSNSSKETQI”, the protein production result is given as “failed”.

Consider “MISNEHINTQNFWYQLVEKMAIGVLVINNEGQILYANDYAVQLFGAIRTELIGTNFLYPMAADETQEVEILKSSNEILTAHMTVRKSIWENRQVWIISLFDIT”, for which the protein production result is “failed”. As for “MISSYGDVDMELRDEDLILEEVRDYLTAYLRNIHQEDIILDNERVVVDLNQLYNYGLMEFVEFLINNPQKGIDFIKECYNDAYYTLRNEYPTNVIIAVKNLPKIFKTTRKGKIFTIEDIRSKTLGKLVEFEGIIVMASKIRPMLKKAYYICPKCGREVVREIDILNTDSEKAVCECGAELNLIEHKSIYTDFQEIKVQQPLDLMENPEEPPKYITVFLENSPGIYAGRVKITGIPIKVKKSKKLPIYDIHVKALHCEVLDGEVKIKLTNSDIENIKKIAKRKDVVNILADRLIPEIKGHSAIKKAVLLQQIKGVKKPGKRADIHILLITDPGIGKTVILRKIAEIPGNLYGSVTTATGVGLTAAVVREKTEIGEDTWVIKPGLLVKAHKGTACIDELTVNKELQSYVLEAMESQTIHISKGGINAKLPAECAILAACNPRWGRFNPEVSVAEQINIPAPLLSRFDLIFPIRDVSDKDKDKDIAEYIVDLHRAYLDEKINREMGLDYLEVDGVKIDKEFIIKYIYYARQKKPIISEKAKELFVNYYVEMRKKHQITARQLEAAIRIAEAHAKAKLKDVVDEEDAKEAINIITECLKEIAYDPETGIFDVDKILGVSKKERDKLTTVYEIIKELSEKSELVEHEDIAEEAKKKGIKEDELENIIKKLIKYGDIDEPKPGRYRLL”, the protein production entry is recorded as “failed”. In the case of “MISTMYSEETSERSSFPSKRHLEDRTENREEHSKRLRPTSFRDQKVTIPQGWLDCPRFGQHIGLIIPSKVPLSESYNDCVPSGKRYNFKQWLTKIGLVIDLTNTTRYYHPNTELRQNRIEYVKIRCSGRDSVPDNVSVNTFVHEVTQFENHNLSEKYLLVHCTHGHNRTGFMIVHYLMRSRPMMSVTQALKIFSDARPPGIYKPDYIDALYRFYHEVKPGSVICPPTPEWKRSEEAKFDDDDNALSYREVQGNNQEENVQLSNDDVLGDEIPYDQEVSYQNSINHMLNISMQFPGSHPLSLGREALQLLRQRYYYATWKADGTRYMMLLTRDGCYLVNREYRFRRVQMRFPCEYEPSDYKVHHYTLLDGEMVVDTIKEGETQRHVRRYLVYDLVAINGQFVAERPFSERWNILERELIKPRNDEKKVRDHWYRYDKEPFGVRIKAFCLLSAVEKKVFNELIPLLSHESDGLIFQGWDNPYVFGPNKDLLKWKFVETLDFLFDMDKYGRQMLFLQERGRMKLMEGFAVEFRGDGWDNDLASYCGKIVECSWDKEKKVWVSLRIRVDKSKPNGIGTGRSVIKCIEDDLTKEVLLKEIKEIILLPMYVERIENDTKEAARRKHGNRKG”, the protein production entry was “failed”. As for “MITETQLTAIQTYALQKLAHDHSGHGRDHLQRVNRLARRLAKDEGANLNLTLAAAWLHDVIDDKLMANPAKAHQDLIVQLNAQNVTADDQTAIFAIIDHMSFSKSFNGPQKLSLEGQVVQDADRLDAIGAIGIARALYYSGHVGEKIYDPAIAPREHMTREQYRHQPGTAINHFYEKLFKLAALMNTDTAKALAAHRTAVMHEFVDQFKAEWTADDKALEHHHHHH”, the protein production entry is given as “not failed”. “MITFEKVTVENENVVKEMFRSHSLSEKQVQYCVKVDDTYIGVIDYRVQGETAILSQLIIHFDYQSYGYGTNTYFTFEMMMKERNVKEIKVLQTELTEPVKSFIESFGFNVEDG”: the protein production entry is listed as “failed”.

For the sequence “MITFRKRVEIEADPAEVFRVISDPWRITEFWKGTRQVIEDGDFYRIRFAFPAWGLMSFHPDAERMTVLTSYLKGPVRGSKVDAVLVSSGKTVLQTEWNVRLSFYLRPFERRIASHFESGADHAINRIKESVEKDKK”, the protein production result is given as “failed”. In the case of “MITHISPAGSMDLLSQLEVERLKKTASSDLYQLYRNCTLAVLNSGSHTDNSKELLDKHQSFDVNVVRRERGIKLELTDPPEHAFVDGEIIKGIQEHLFSVLRDIVYVNMHLADSQRLNLTNPTHITNLVFGILRNAGALTPGIEPNLVVCWGGHSINGVEYQYTREVGNELGLRELNICTGCGPGAMEGPMKGAAIGHAKQRYTEQRYLGLTEPSIIAA”, the protein production entry was “failed”. The same measure for “MITIITLLLVVLISAIIVRIGAVALEMTGLSRDVAAFQAQSAFSGVGFTTSESEYVVSHPVRRRIIRILMLLGSAGVTSAIATLVLSFVGTTKEEAGYRMVVLLIGLLALYLFFRSKFIERVMRKAIKKGLSRLAPSLRVIDYSQLLGITRGYSIVQIKVKRRSWLADKTLRDLQLDKEGVLVLGIYRKVNGRRVYLGAPHGSTKVLPGDELILYGPEDVLMSLSKRLKGAKGEKEHVEAMEMAKARRVQEEREAGISV”: “failed”; for “MITLKQALSLSQDELETLKNEIDAKVRASDLNAYIKAPSLNGASAKGVPILIKDNISVKGWEITCSSKILEGYVAPYHASVMENLHQNSMAGFGLSNMDEFAMGSTTESSCYGITKNPRDKNRVPGGSSGGSAAAVAGGLAVAALGSDTGGSIRQPASYCGCVGLKPTYGRVSRYGLIAYCSSFDQIGPITQNVEDASILFDAISGYDSKDSTSANLKPTQTFKNLNRDKRFKIAVLMDHIKDASNEVQLAYENTLKALKEMGHEIVEKKMLDSHYQISIYYIISMAEASSNLARFDGVRYGRRAQNIKDLKELYLKSRSEGFGDEVKRRIMLGNFVLSSGYYDAYYLKAQQMRLIIKEQYNKIFEEVDLIFTPVAPTSAHLFNYHASPLEMYLSDIYTIGANLSGLPALSLPVAKDPLGLPIGMQFIAKAFDEQSLLDVSYALEQELDLKLD”: “failed”.

For “MITRTIRGILKGAAVFLGLAGAIALLHAFGLDSTLDTAWIDSHIRDHGLQGHLLYIGIAGVLTALAVPRQFVSFLGGYAFGAAFGTLWATVGATLGCMLTFFYARFAGQSLVNRRFSHRVARVNAFLSRNPFTMTFIIRCLPVGNNVLTNLIAGVSSIPAVQFFAGSFIGYIPQHFIFALLGSGVHVSPVLRTVTSALLFVLSSVFGYMLYRRYRIDRDLEEPDDQ”, the protein production entry was “failed”. With “MITTRTARQCGQADYGWLQARYTFSFGHYFDPKLLGYASLRVLNQEVLAPGAAFQPRTYPKVDILNVILDGEAEYRDSEGNHVQASAGEALLLSTQPGVSYSEHNLSKDKPLTRMQLWLDACPQRENPLIQKLALNMGKQQLIASPEGAMGSLQLRQQVWLHHIVLDKGESANFQLHGPRAYLQSIHGKFHALTHHEEKAALTCGDGAFIRDEANITLVADSPLRALLIDLPV”, the protein production entry is given as “not failed”. As for “MITVVIASRLREDRLDYLTAMHASLTRQSVPWEAVIALDGASPDRLPRQLAQDPRVDTLVLPRPVGAACARNLALTQVRTRYVNWADDDDEFTDDAMSVRLETLESTGVGWCAGWSEDQFRDGSTRLWRCPTPPGRHEAGDVWTFWKSPADTIPIGPTTILARTDLVRAAPMGGLVQGEDYCAALGVTALAPGILLPLPVYRYRKWGGQMTAQDGYDQLETAAREHAWAYGRSLRAVLRGGEDLVHVLEHHHHHH”, the protein production result was “failed”.

As for “MIVAFENNVVCSDEKVRDYLLAHHADLKEDQDEDALCLVRLHKEEDIDGTDRVDLAGWREISRELYWTGEQMECNYSIIRFSRKTTSLQMSVVLSTCNQLEWLEKVLWGYEAQDTKNFELIIADDGSRKETYDMLQRITPQLSFQVKHVWHEDKGFRKCDILNKGILAAQADYLLFSDGDCIPRKDFVSTHLCLRRKGRFLSGGYHKLSMDLSKDITKDDILSGRCFDLQWMRGKGMPASFKNNKLTATGFKRWALNTFTPTKASWNGHNASGWLSDILAVNGFDERMQYGGQDREFGERLENYGIHGMQIRYSTVCLHLDHARGYKTKDSIQKNRNIRKHTRGAKVQWASLGIVKDELRGQSVKVNSYYDRYTREEEKLTSYKEKGGFYRHIYSLPCRWRRAKYHDKVVRAYQQDTDAPALSNHSGVIVSLTTFPPRISQLHLMLKSILWQTCPPEKIIVWLSEQEFPGRLNDLPEELKRLMAKGIAFRFVSENFRSHKKYHYVFREYPDSKVITVDDDLIYPRNTVERLLSLSYQYPDTVCGNVIRKIHMDGNSFSVYRKWTKVFTMPVNSSLQNVAIGCGGIYYPPHWYGEELFDWKIISEHCPSADDLWLKANELKRRVKVTGGGEFYPRPIELPQTQNNSLQKKNNGKTNLNDKQWKSLNELWKLDELYCINGK”, the protein production result is “failed”. As for “MIVIPMAGMSSRFFKAGYTQPKYMLEAHGQTLFEHSVNSFAAYFASTPFLFIVRNVYDTAVFVREKATQLGIKQFYIAELHTETRGQAETVTLGLEELAKQGVDYQGSITVFNIDTFRPNFVFPDISQHSDGYLEVFQGGGDNWSFAKPEHAGSTKVIQTAEKNPISDLCSTGLYHFNRKEDYLEAYREYVARPSQEWERGELYIAPLYNLLIQKGLNIHYHLIARHEVIFCGVPDEYTDFLRQPQPLEHHHHHH”, the entry is “not failed”; as for “MIVRRTIDKDELKELPKTVFPGRIYVIQSEAETEKAVAYLQSRPVIGIDSETRPSFTKGQSHKVALLQISSEECCFLFRLNMTGLTQPLVDLLENPAVIKVGLSLKDDFMMLHKRAPFTQQSCIELQDYVRQFGIQDKSLQKIYAILFKEKISKSQRLSNWEADVLSDGQKQYAATDAWACLNIYNLLQELKQTGDWEVSPLTATVSPAEEVISNKISD”, “failed”.

As for “MIWNIDYFCNLRCKSCNAWQGKIFFPEDQIDKHLQEMKNNGIKIVSVTGGEPTLNKNVVDIIRKLKENHFFTHIATNGTNPYVLRKLYPYLDAVTISLDSNIPEEHNAYRGLKIFDTVVSNIKEAKSKVKIVTANMLVTNF”, the protein production entry is reported as “failed”.
